The data set in a line: yeast display, Sf9 membrane polyspecificity reagent, FACS + sequencing; frameworks hold sequencing errors. In short, it runs like this: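 Nanobodies came from a synthetic yeast display library in Saccharomyces cerevisiae BJ5465, induced with galactose for 36–48 hours and stained for 1 hour at 4 °C with 10% biotinylated, detergent-solubilized Sf9 membrane reagent. Cells were enriched on streptavidin microbeads and then FACS-sorted, with low and high (top ~1%) gates set on anti-HA fluorescence for expression and streptavidin fluorescence for reagent binding. Each polyreactivity label reflects the gate a clone came from. Genes were amplified by colony PCR, sequenced by MiSeq 2 × 250 and filtered by CDR length.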
Regarding “QVQLVESGGGLVQAGGSLRLSCAASGRIFSYYAMGWYRQAPGKERELVASISRSGGSTYYADSVKGRFTISRDNAKNTVYLQMNSLKPEDTAVYYCAAYKYVRSYPYDYWGQGTQVTVSS”, the “polyreactivity (PSR sort gate)” value is “low polyreactivity”.
To “QVQLVESGGGLVQAGGSLRLSCAASGRIFSYYAMGWYRQAPRKERELVAGINWRGGRTYYADTVKGRFTISRDNAKITGYLQMNSLKPEETAVYYCAGDHPETPYDYWGQGTQVTVSS” belongs “high polyreactivity”; to “QVQLVESGGGLVQAGGSLRLSCAASGRIFTAYAMGWYRQAPGKERELVAAISSGDSTYYADSVKGRFTISRDNAKNTVYLQMNSLKPEDTAVYYCAAEGYLWGQSYNGLNYDSWGQGTQVTVSS”, “low polyreactivity”.
In the case of “QVQLVESGGGLVQAGGSLRLSCAASGRIFTDNAMGWYRQEPGKERELVAAIRGSGSSTYYADSVKGRFTISRDNAKNTVYLQMNSLKPEDTAVYYCAARRAVYRGNYWGQGTQVTVSS”, the “polyreactivity (PSR sort gate)” value is listed as “high polyreactivity”.
Take “QVQLVESGGGLVQAGGSLRLSCAASGRIFTFNAMGWYRQAPGKERELVAAINSGGSRTYYADSVKGRFTISRDNAKNTVYLQMNSLKPEDTAVYYCAAGYSGWVRSSSPFYYWGQGTQVTVSS”: the “polyreactivity (PSR sort gate)” value is on record as “high polyreactivity”.
To “QVQLVESGGGLVQAGGSLRLSCAASGRIFTFNAMGWYRQAPGKERELVAAIRRGGGRTYYADSVKGRFTISRDNAKNTVYLQMNSLKPEDTAVYYCAAPFYRQSLIEYDYWGQGTQVTVSS” belongs “high polyreactivity”; to “QVQLVESGGGLVQAGGSLRLSCAASGRIFTFYAMGWSRQAPGKERELVAVITTGTSTTYADSVKGRFTISRDNAKNTVYLQMNSLKPEDTAVYYCAVDSWSRVQGWLAHNYDYWGQGTQVTVSS”, “low polyreactivity”.
To “QVQLVESGGGLVQAGGSLRLSCAASGRIFTGNARGWYRQAPGKERELVAGISTSGGSTYYADSVKGRFTISRDNAKNTVYLQMTSLTPEDTAVYYCAAAYVHYVYKYDYWGQGTQVTVSS” belongs “high polyreactivity”; to “QVQLVESGGGLVQAGGSLRLSCAASGRIFTGYAMGWYRQAPGKERELVAAISRGGSTNYADSVKGRFTISRDNAMNTVYLQMNSLKAEDTSVYYCACGVHWDRGDYWGQGAQVTVSS”, “low polyreactivity”.
To “QVQLVESGGGLVQAGGSLRLSCAASGRIFTGYAMGWYRQAPGKERELVAAITASGGNTYYADSVKGRFTISRDNAKNTVYLQMNSLKPEDTAVYYCAAGWYDQPDDYTSAYGVTKYGYWGQGTQVTVSS” belongs “low polyreactivity”; to “QVQLVESGGGLVQAGGSLRLSCAASGRIFTGYAMGWYRQAPGKERELVAVISSSTDRTYSADSVKGRFTISRDNAKNTVYFQMNSLKPEDTAVYYCAARPYRHKSRRYDYWGHGTQVTVSS”, “high polyreactivity”.
For “QVQLVESGGGLVQAGGSLRLSCAASGRIFTGYAMGWYRQAPGTERELVAAISDGGSTNYADSVKGRFTISRDNAKNTVYLQMNSLKPEDTAVYYCAADGHSSDKYDYWGQGTQVTVSS”, the “polyreactivity (PSR sort gate)” value is on record as “low polyreactivity”.
Next, “QVQLVESGGGLVQAGGSLRLSCAASGRIFTHNAMGWYRQAPGKERELVAAISYSGVSTYYADSVKGRFTISRDNAKNTVYLQMNSLKPEDTAVYYCARDRWKWHYGYDYWGQGTQVTVSS”: “low polyreactivity”; “QVQLVESGGGLVQAGGSLRLSCAASGRIFTHNAMGWYRQAPGKERELVAAITWTGGSTYADSVKGRFTISRDNAKKTVYLQMNSLKPEDTAVYYCNARAHRYYLYDVQFGRGHSGGYWGQGTQVTVSS”: “low polyreactivity”.
As for “QVQLVESGGGLVQAGGSLRLSCAASGRIFTHNSMGWYRQAPGKERELVAAISYSGVSTYYADSVKGRFTISRDTAKNTVFLQMNSLKPEDTAVYYCNAVWEYSGKSDYWGQGTQVSVSS”, the “polyreactivity (PSR sort gate)” value is “low polyreactivity”.
Regarding “QVQLVESGGGLVQAGGSLRLSCAASGRIFTINAMGWYRQAPGKERELVAAISWSGVRTYYADSVKGRFTISRDNAKNTVYLQMNSLKPEDTAVYYCAKRRQYQRSYNYWGQGTQVTVSS”, the “polyreactivity (PSR sort gate)” value was “low polyreactivity”.
Next, “QVQLVESGGGLVQAGGSLRLSCAASGRIFTINAMGWYRQAPGKERELVAVITRGGSTKYADSVKGRFTISRDNAKNTVYLQMNSLKPEDTAVYYCAARVRAGHGKNGYWGQGTQVTVSS”: “high polyreactivity”.
For “QVQLVESGGGLVQAGGSLRLSCAASGRIFTKYAMGWYRQAPGKDRELVAAISYRGGSTYYADSVKGRFTISRDNAQNTVYLQMNSLKPEDTAVYYCATSWTPNYFVTSDYWGQGTQVTVSS”, the “polyreactivity (PSR sort gate)” value was “high polyreactivity”.
To “QVQLVESGGGLVQAGGSLRLSCAASGRIFTKYAMGWYRQAPGKERELVATITRNGGSTYYADSVKGRFTISRDNAKNTVYLQMNSLKPEDTAVYYCAADKRYKLDYWGQGTQVTVSS” belongs “high polyreactivity”; to “QVQLVESGGGLVQAGGSLRLSCAASGRIFTLYAMGWYRQAPGKERELVAGISRSGGSTYYADSVKGRFTISRDNAKNTVYLQMNSLKPEDTAVYYCNAVPIYYAWRRNKPFDYWGQGTQVTVSS”, “low polyreactivity”.
Next, “QVQLVESGGGLVQAGGSLRLSCAASGRIFTNNAMGWYRPAPGKERELVAAISRSGGRTYYADSVKGRFTISRDNAKNTVYLQMNSLKPEDTAVYYCAAVHLYYGYNSPFTMDYWGQGTQVTVSS”: “high polyreactivity”.
Next, “QVQLVESGGGLVQAGGSLRLSCAASGRIFTPYAMGWYRQAPGKERELVATISRGTSTSYADSVKGRFTISRDNAKNTVYLQMNSLKPEDTAVYYCAALGPRTTFRYTSYYYWGQGTQVTVSS”: “high polyreactivity”.
Take “QVQLVESGGGLVQAGGSLRLSCAASGRIFTPYAMGWYRQAPGKERELVAVIRDGSTYYADSVKGRFTISRDNAKNTVYIQMNSLKPEDTAVYYCRYDIWVWWSGAYDYWGQGTQVTVSS”: the “polyreactivity (PSR sort gate)” value is listed as “low polyreactivity”.
To “QVQLVESGGGLVQAGGSLRLSCAASGRIFTQYAMGWYRQAPGKERELVAAINASDGSTYYADSVKGRFTISRDNAKNTVYLQMNSLKPEDTAVYYCAGYAYNAIEYGYWGQGTQVTVSS” belongs “low polyreactivity”; to “QVQLVESGGGLVQAGGSLRLSCAASGRIFTRNAMGWYRQAPGKEREFVAAISSSGSSTYFADSVKGRFTISRDNAKNTVYLQMNSLKPEDTAVYYCAARVTSPVSHDRVDYWGQGTQVTVSS”, “high polyreactivity”; to “QVQLVESGGGLVQAGGSLRLSCAASGRIFTRNAMGWYRQAPGKEREFVAAISWSGGSTYYADSVKGRFTISRDNAKNTFYLQMNSLKPEDTAVYFCAAKNSGGYVSWYDYWGQGTQVTVSS”, “low polyreactivity”.
With “QVQLVESGGGLVQAGGSLRLSCAASGRIFTRNAMGWYRQAPGKERELVATISAGGGRTSYADSVKGRFTISRDNAKNTVELQMNSLKPEDTAVYYCAARGQVGYYWGQGTQVTVSS”, the “polyreactivity (PSR sort gate)” value is on record as “high polyreactivity”.
“QVQLVESGGGLVQAGGSLRLSCAASGRIFTRNAMGWYRQAPGKERELVATISAGGGRTSYADSVKGRFTISRDNAKNTVYLQMNSLKPEDTAVYYCAARGQVGYYWGQGTQVTVSS”: the “polyreactivity (PSR sort gate)” value is given as “high polyreactivity”.
For “QVQLVESGGGLVQAGGSLRLSCAASGRIFTRNGMGWYRQAPGKERELVAASTRGGRTNYADSVKGRFTISRDNAKNTVYLQMNSLKPEDTAVYYCAAGFPWSYYGSYDYWGQGTQVTVSS”, the “polyreactivity (PSR sort gate)” value is “high polyreactivity”.
On to “QVQLVESGGGLVQAGGSLRLSCAASGRIFTRNVMGWYRQAPGKERELVARINSGGRTYYADSVKGRFTISRDNAKNTVYLQMNSLKPEDTAVYYCAVPFYWYSPMDSWGQGTQVTVSS”, for which the “polyreactivity (PSR sort gate)” value is listed as “high polyreactivity”.
With “QVQLVESGGGLVQAGGSLRLSCAASGRIFTRYAMGWNRQAPGKETELGAAITASGGRTYYADSVKGRFTISRDNAKNTVYLQMNSLKPEDTAVYYCAATYHRYYETQDSYDYWGQGTQLTVSS”, the “polyreactivity (PSR sort gate)” value is listed as “high polyreactivity”.
In the case of “QVQLVESGGGLVQAGGSLRLSCAASGRIFTRYAMGWYRQAPGKERELVAAITYNGGSTYYADSVKGRFTISRDNAKNTVYLQMNSLKPEDTAVYYCNAVYLSWFGLYAGFDYWGQGTQVTVSS”, the “polyreactivity (PSR sort gate)” value is listed as “high polyreactivity”.
To “QVQLVESGGGLVQAGGSLRLSCAASGRIFTRYAMGWYRQAPGKERELVATITRRGGSTYYADSVKGRFTISRDNAKNTVYLQMNSLKPEDTAVYYCAKDRTTSSFGEYDYWGQGTQVTVSS” belongs “high polyreactivity”; to “QVQLVESGGGLVQAGGSLRLSCAASGRIFTRYAMGWYRQAPGKERELVSAISSGGSTYYADSVKGRFTISRDNAKNTVYLQMNSLKPEDTAVYYCAAKTRPQRTYSTRQQMNYWGQGTQVTVSS”, “high polyreactivity”.
Next, “QVQLVESGGGLVQAGGSLRLSCAASGRIFTSYTMGWYRQAPGKERELVAAISASGASTYYADSVKGRFTISRDNAKNTVYLQMNSLKPEDSAVYYCATVRPRERRGYWGQGTQVTVSS”: “high polyreactivity”; “QVQLVESGGGLVQAGGSLRLSCAASGRIFTSYVMGWYRQAPGKERELVAAITSSGGSTYYADSVKGRFTISRDNAKNTVYLQMNSLKPEDTAVYYCAAATRGSGRRYDYWGQGTQVTVSS”: “high polyreactivity”; “QVQLVESGGGLVQAGGSLRLSCAASGRIFTTNTMGWYRQAPGKERELVARITYSGTSTYYADSVKGRFTISRDNAKNTVYLQMNSLKPEDTAVYYCAAKVWWRKYLLQDYYYWGQGTQVTVSS”: “high polyreactivity”.
Regarding “QVQLVESGGGLVQAGGSLRLSCAASGRIFTTYAMGWYRQAPGKERELVARIRWRGGSTYYADSVKGRFTISRDNAKNTVYLKMNSLKPEDTAVYYCNADKYYGFDYWGQGTQVTVSS”, the “polyreactivity (PSR sort gate)” value is on record as “high polyreactivity”.
To “QVQLVESGGGLVQAGGSLRLSCAASGRIFTTYVMGWYRQAPGKERELVAAISARGSTYYADSVKGRFTISRDNAKNTVYLQMNSLKPEDTAVYYCAAGHRLPVYYGYPRATYNYWGQGTQVTVSS” belongs “low polyreactivity”; to “QVQLVESGGGLVQAGGSLRLSCAASGRIFTWYAMGWYRQAPGKERELVAAINASGGGTYADSVKGRFTISRDNAKNTVYLQMNSLKPEDTAVYYCNADIRAFYLYYSEGFSWRLDYWGQGTQVTVSS”, “high polyreactivity”; to “QVQLVESGGGLVQAGGSLRLSCAASGRIFTWYAMGWYRQAPGKERELVATISTGGSTNYADSVKGRFTISRDNAKNTVYLQMNSLKPEDTAVYYCAAKWPWSPNAFYYWGQGTQVTVSS”, “high polyreactivity”.

(Values after the nanobody polyreactivity screen of Harvey et al. (2022).)
